From article PMC5505988

Target: HLA-A*11:01 heavy chain with β2-microglobulin (human)

“SSCS, N-terminal 4-mer of EBV LMP2(340–349) (peptide)” gave a melting temperature (Tm) of the pHLA complex refolded with SSCS + SCPLSK (m9 + m10), thermofluor thermal shift assay of 50.3 °C.
“SSCSS, N-terminal 5-mer of EBV LMP2(340–349) (peptide)” showed a melting temperature (Tm) of the pHLA complex refolded with SSCSS + SCPLSK (m11 + m10), thermofluor thermal shift assay of 49.7 °C.
Substance “SSCSSC, EBV LMP2(340–345), N-terminal 6-mer (peptide)” has a melting temperature (Tm) of the pHLA complex refolded with SSCSSC + SCPLSK (m13 + m10), thermofluor thermal shift assay of 48.7 °C and a melting temperature (Tm) of the pHLA complex refolded with SSCSSC + SSCPLSK (m13 + m5), thermofluor thermal shift assay of 49.4 °C.
